In the experiment the target is GyrA14 (UniProt P0AES4). Description: SEC-MALS.

On to “GyrA14 (from UniProt P0AES4 363-494) (domain or fragment)”, for which the stoichiometry N came out at 2.
